# Measured values published in paper PMC7959245 (The Plant journal : for cell and molecular biology, 2020).
# T1: MBP-COP1 (Arabidopsis thaliana, UniProt P43254 1-675)
# T1 sequence (looked up): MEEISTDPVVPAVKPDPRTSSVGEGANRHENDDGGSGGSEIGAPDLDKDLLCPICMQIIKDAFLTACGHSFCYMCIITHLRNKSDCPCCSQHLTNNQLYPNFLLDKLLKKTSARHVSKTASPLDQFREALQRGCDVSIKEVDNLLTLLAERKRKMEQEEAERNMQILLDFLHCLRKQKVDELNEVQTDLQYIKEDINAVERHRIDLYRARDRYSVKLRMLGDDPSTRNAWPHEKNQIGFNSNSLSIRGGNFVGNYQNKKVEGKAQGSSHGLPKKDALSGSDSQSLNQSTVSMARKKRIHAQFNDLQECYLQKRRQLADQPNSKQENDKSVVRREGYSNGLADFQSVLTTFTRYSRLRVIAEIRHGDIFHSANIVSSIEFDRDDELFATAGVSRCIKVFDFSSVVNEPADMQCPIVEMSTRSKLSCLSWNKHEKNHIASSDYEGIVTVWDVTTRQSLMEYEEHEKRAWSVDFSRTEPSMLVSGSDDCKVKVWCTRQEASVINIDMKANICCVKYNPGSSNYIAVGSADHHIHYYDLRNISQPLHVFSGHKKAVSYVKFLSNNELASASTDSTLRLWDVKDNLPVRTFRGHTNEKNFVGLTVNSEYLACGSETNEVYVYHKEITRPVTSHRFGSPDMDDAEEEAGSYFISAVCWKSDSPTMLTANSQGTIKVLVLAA
# Molecular target: T1, MBP-COP1
# Assay: pull-down
binder,measurement,value
"GST-HEC2 (natural protein, Arabidopsis thaliana, UniProt Q9SND4 1-231, looked up) MDNSDILMNMMMQQMEKLPEHFSNSNPNPNPHNIMMLSESNTHPFFFNPTHSHLPFDQTMPHHQPGLNFRYAPSPSSSLPEKRGGCSDNANMAAMREMIFRIAVMQPIHIDPESVKPPKRKNVRISKDPQSVAARHRRERISERIRILQRLVPGGTKMDTASMLDEAIHYVKFLKKQVQSLEEHAVVNGGGMTAVAGGALAGTVGGGYGGKGCGIMRSDHHQMLGNAQILR",binding result,binds
